Target: Cartilage oligomeric matrix protein (COMP), full-length, stably overexpressed in prostate cancer cells (human) (UniProt P49747)
Test: non-reducing SDS-PAGE with western blot; concentrated conditioned medium (Opti-MEM, 2 days) of transfected cells on a 5% non-reducing SDS-PAGE gel, blotted with anti-human COMP; under reducing conditions (10% gel) a sharp band of 130 kDa

Sequence of Cartilage oligomeric matrix protein (COMP), full-length, stably overexpressed in prostate cancer cells, P49747 21-757 (natural protein; other documents disagree on this pair) (P49747 21-757): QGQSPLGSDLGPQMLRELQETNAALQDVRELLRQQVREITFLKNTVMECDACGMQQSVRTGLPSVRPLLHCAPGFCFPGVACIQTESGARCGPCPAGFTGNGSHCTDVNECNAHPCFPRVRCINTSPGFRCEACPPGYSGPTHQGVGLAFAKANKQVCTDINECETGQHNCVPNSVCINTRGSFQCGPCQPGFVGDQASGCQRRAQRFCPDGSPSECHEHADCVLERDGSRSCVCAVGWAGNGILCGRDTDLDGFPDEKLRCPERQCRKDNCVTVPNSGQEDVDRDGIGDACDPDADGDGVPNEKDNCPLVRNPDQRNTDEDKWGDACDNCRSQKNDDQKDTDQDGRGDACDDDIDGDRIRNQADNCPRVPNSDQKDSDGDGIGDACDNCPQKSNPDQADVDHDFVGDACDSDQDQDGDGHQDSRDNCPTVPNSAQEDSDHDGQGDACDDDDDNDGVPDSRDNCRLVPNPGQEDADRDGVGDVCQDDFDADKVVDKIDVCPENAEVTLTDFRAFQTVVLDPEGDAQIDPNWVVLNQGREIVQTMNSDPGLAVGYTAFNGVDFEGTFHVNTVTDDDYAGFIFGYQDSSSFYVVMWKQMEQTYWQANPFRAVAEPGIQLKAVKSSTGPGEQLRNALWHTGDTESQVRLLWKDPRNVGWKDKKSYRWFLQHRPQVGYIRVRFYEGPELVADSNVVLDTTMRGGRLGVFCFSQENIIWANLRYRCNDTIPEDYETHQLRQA

stoichiometry N: 5
Substance: Cartilage oligomeric matrix protein (COMP), full-length, stably overexpressed in prostate cancer cells, P49747 21-757 (natural protein; other documents disagree on this pair)
